From PMC9352969 (The Journal of Biological Chemistry, 2022) come the findings set out here.

The target of assay [1] is FtsQ, full-length (Escherichia coli divisome transmembrane protein) (Escherichia coli, UniProt P06136 1-276). The assay is described as follows: pull-down.
In assay [2] the target is T1, FtsL, full-length (Escherichia coli divisome transmembrane protein) (Escherichia coli, UniProt P0AEN4 1-121).
T1 sequence (looked up): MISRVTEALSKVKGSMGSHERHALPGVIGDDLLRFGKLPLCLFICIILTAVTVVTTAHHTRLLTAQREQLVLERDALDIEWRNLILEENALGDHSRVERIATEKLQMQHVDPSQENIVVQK
The assay is described as follows: pull-down.

FtsQ, full-length (Escherichia coli divisome transmembrane protein), sequence (P06136 whole entry): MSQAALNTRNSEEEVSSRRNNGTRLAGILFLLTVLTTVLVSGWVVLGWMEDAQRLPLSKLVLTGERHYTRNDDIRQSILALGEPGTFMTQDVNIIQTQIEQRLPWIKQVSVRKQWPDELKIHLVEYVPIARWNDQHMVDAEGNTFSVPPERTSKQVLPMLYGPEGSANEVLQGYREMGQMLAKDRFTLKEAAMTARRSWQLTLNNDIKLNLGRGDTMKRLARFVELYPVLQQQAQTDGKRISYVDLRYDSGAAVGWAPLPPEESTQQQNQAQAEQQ

B1: FtsB, full-length, His-tagged (Escherichia coli divisome transmembrane protein) (natural protein, UniProt P0A6S5 1-103, looked up)
chain: MGKLTLLLLAILVWLQYSLWFGKNGIHDYTRVNDDVAAQQATNAKLKARNDQLFAEIDDLNGGQEALEERARNELSMTRPGETFYRLVPDASKRAQSAGQNNR
In the case of B1, the binding result in assay [1] and in assay [2] was “binds” each time.
